Reference: PMC3074162

What was measured:
[1] = biological target: ParB 65–139 (C-terminal DNA-binding RHH domain of pCXC100 ParB) (Leifsonia xyli subsp. cynodontis (plasmid pCXC100)) (UniProt Q6ABV9); test: crystal structure
ParB 65-139 (RHH domain) [2] = biological target: T1, ParB 65-139 (RHH domain) (Leifsonia xyli subsp. cynodontis …, UniProt Q6EEF9 65-139); test: ITC
T1 sequence: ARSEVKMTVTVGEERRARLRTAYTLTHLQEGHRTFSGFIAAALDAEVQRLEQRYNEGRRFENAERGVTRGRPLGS

ParB 65-139 (RHH domain) [3] = biological target: T1, ParB 65-139 (RHH domain); test: ITC; remark: listed apart in the source
ParB 65-139 (RHH domain) [4] = biological target: T1, ParB 65-139 (RHH domain); test: ITC; remark: listed apart in the source
ParB 65-139 (RHH domain) [5] = biological target: T1, ParB 65-139 (RHH domain); test: ITC; remark: listed apart in the source
ParB 65-139 (RHH domain) [6] = biological target: T1, ParB 65-139 (RHH domain); test: ITC; remark: listed apart in the source
ParB 65-139 (RHH domain) [7] = biological target: T1, ParB 65-139 (RHH domain); test: EMSA
ParB 65-139 (RHH domain) [8] = biological target: T1, ParB 65-139 (RHH domain); test: EMSA; remark: listed apart in the source
ParB 65-139 (RHH domain) [9] = biological target: T1, ParB 65-139 (RHH domain); test: ITC; remark: listed apart in the source
ParB 65-139 (RHH domain) [10] = biological target: T1, ParB 65-139 (RHH domain); test: EMSA; remark: listed apart in the source
ParB 65-139 (RHH domain) [11] = biological target: T1, ParB 65-139 (RHH domain); test: EMSA; remark: listed apart in the source
ParB 65-139 (RHH domain) [12] = biological target: T1, ParB 65-139 (RHH domain); test: EMSA; remark: listed apart in the source
ParB 65-139 (RHH domain) [13] = biological target: T1, ParB 65-139 (RHH domain); test: EMSA; remark: listed apart in the source
ParB 65-139 (RHH domain) [14] = biological target: T1, ParB 65-139 (RHH domain); test: EMSA; remark: listed apart in the source

Molecule “ParB 65–139 (C-terminal DNA-binding RHH domain of pCXC100 ParB) (from UniProt Q6ABV9 65-139) (domain or fragment)” has a stoichiometry N [1] of 2.

B1: R9-18 (dsDNA)
DNA 1: GGAATTGTTTGCTACGGT
DNA 2: ACCGTAGCAAACAATTCC
With B1 the Kd (ParB 65-139 (RHH domain) [2]) was 17 ± 6 nM and the Kd (ParB 65-139 (RHH domain) [3]) was 11 ± 9 nM.

B2: R3-18 (dsDNA)
DNA 1: GGAATAGGTGGAAAAGCC
DNA 2: GGCTTTTCCACCTATTCC
B2 gave a Kd (ParB 65-139 (RHH domain) [3]) of 31 ± 12 nM, a Kd (ParB 65-139 (RHH domain) [4]) of 37 ± 10 nM and a Kd (ParB 65-139 (RHH domain) [5]) of 30 ± 10 nM.

B3: R3-18-10A (dsDNA)
DNA 1: GGAATAGGTAGAAAAGCC
DNA 2: GGCTTTTCTACCTATTCC
In the case of B3, the Kd (ParB 65-139 (RHH domain) [6]) is reported as 30 ± 10 nM.

B4: R4-18 (dsDNA)
DNA 1: GGAAAAGCCAGAAACAGT
DNA 2: ACTGTTTCTGGCTTTTCC
For B4, the Kd (ParB 65-139 (RHH domain) [3]) was 87 ± 59 nM and the Kd (ParB 65-139 (RHH domain) [4]) was 60 ± 12 nM.

B5: 2R3'-27 (dsDNA)
DNA 1: GGAAAAGGTGGAAAAGGTGGAAAAGGT
DNA 2: ACCTTTTCCACCTTTTCCACCTTTTCC
With B5 the Kd (ParB 65-139 (RHH domain) [7]) was 112 nM.

B6: 2R6'-27 (dsDNA)
DNA 1: GGGTAAGATGGGTAAGATGGGTAAGAT
DNA 2: ATCTTACCCATCTTACCCATCTTACCC
Molecule B6 has a Kd (ParB 65-139 (RHH domain) [8]) of 877 nM.

B7: R0-18 (dsDNA)
DNA 1: TGCTCGATCTGGCTATCC
DNA 2: GGATAGCCAGATCGAGCA
B7: no binding (ParB 65-139 (RHH domain) [9]).

B8: R10-18 (dsDNA)
DNA 1: TGCTACGGTAGAACACGC
DNA 2: GCGTGTTCTACCGTAGCA
B8: no binding (ParB 65-139 (RHH domain) [9]).

B9: R11-18 (dsDNA)
DNA 1: AGAACACGCCGAACGGCC
DNA 2: GGCCGTTCGGCGTGTTCT
B9: no binding (ParB 65-139 (RHH domain) [9]).

B10: R2R3-18 (dsDNA)
DNA 1: AGTAGGAATAGGTGGAAA
DNA 2: TTTCCACCTATTCCTACT
B10: binds (ParB 65-139 (RHH domain) [10]).

B11: R2R3-27 (dsDNA)
DNA 1: AGTAAAGTAGGAATAGGTGGAAAAGCC
DNA 2: GGCTTTTCCACCTATTCCTACTTTACT
B11: binds (ParB 65-139 (RHH domain) [11]).

B12: R4-18-1 (dsDNA)
DNA 1: TGGAAAAGCCAGAAACAG
DNA 2: CTGTTTCTGGCTTTTCCA
B12: binds (ParB 65-139 (RHH domain) [12]).

B13: R4-18+1 (dsDNA)
DNA 1: GAAAAGCCAGAAACAGTG
DNA 2: CACTGTTTCTGGCTTTTC
B13: binds (ParB 65-139 (RHH domain) [12]).

B14: R4-18-2 (dsDNA)
DNA 1: GTGGAAAAGCCAGAAACA
DNA 2: TGTTTCTGGCTTTTCCAC
B14: binds (ParB 65-139 (RHH domain) [13]).

B15: R4-18-3 (dsDNA)
DNA 1: GGTGGAAAAGCCAGAAAC
DNA 2: GTTTCTGGCTTTTCCACC
B15: binds (ParB 65-139 (RHH domain) [13]).

B16: R4-18+3 (dsDNA)
DNA 1: AAAGCCAGAAACAGTGGG
DNA 2: CCCACTGTTTCTGGCTTT
B16: binds (ParB 65-139 (RHH domain) [13]).

B17: R4-18+4 (dsDNA)
DNA 1: AAGCCAGAAACAGTGGGA
DNA 2: TCCCACTGTTTCTGGCTT
B17: binds (ParB 65-139 (RHH domain) [13]).

B18: 1R3'-18 (dsDNA)
DNA 1: GGAAAAGGTGGAAAAGGT
DNA 2: ACCTTTTCCACCTTTTCC
B18: binds (ParB 65-139 (RHH domain) [14]).

B19: 1R6'-18 (dsDNA)
DNA 1: GGGTAAGATGGGTAAGAT
DNA 2: ATCTTACCCATCTTACCC
B19: binds (ParB 65-139 (RHH domain) [14]).
